In patent EP4722245A1, “ANTIBODY TARGETING ITGA2, ANTIBODY DRUG CONJUGATE THEREOF, AND USE” (Foreseen Technology (Beijing) Co., Ltd., priority 2023, dated 2024):
Changes are numbered by the printed parent chain.

T1: ITGA2 protein on the surface of human tumor cells (human, UniProt P17301 30-1181)
T1 sequence (looked up): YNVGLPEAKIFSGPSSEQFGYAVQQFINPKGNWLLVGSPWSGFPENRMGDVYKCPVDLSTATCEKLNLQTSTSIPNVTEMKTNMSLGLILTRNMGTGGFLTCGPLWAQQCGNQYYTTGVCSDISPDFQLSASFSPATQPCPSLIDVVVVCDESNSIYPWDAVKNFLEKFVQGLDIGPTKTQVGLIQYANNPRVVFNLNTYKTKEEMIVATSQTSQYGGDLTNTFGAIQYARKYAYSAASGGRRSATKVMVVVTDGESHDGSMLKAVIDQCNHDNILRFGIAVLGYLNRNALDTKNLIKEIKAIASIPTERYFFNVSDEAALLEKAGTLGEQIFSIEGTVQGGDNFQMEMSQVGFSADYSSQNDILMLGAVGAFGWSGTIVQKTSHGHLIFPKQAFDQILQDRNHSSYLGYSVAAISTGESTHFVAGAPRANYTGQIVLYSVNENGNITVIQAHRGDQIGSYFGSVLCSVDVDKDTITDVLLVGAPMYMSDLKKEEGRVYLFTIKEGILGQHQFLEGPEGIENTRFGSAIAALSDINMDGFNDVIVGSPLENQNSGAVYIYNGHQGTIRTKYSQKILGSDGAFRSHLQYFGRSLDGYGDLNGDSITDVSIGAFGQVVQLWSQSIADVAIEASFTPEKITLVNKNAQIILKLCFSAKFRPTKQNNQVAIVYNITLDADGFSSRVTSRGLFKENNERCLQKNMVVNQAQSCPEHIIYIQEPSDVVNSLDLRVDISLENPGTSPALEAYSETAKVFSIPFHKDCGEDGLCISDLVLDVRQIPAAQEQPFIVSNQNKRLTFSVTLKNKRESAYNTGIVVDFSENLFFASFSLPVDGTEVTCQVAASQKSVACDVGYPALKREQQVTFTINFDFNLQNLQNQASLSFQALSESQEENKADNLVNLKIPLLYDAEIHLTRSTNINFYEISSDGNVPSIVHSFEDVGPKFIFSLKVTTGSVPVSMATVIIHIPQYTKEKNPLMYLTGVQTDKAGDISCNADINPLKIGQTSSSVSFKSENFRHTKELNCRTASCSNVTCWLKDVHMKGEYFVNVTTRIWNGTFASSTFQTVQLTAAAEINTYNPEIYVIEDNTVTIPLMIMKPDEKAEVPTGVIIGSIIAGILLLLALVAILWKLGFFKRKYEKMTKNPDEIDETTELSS

T2: ITGA2-His (UniProt P17301 30-1132, limits assumed)
T2 construct: Coated on the ELISA plate at 2 ug/mL; whole entry P17301 is named; also called ITGA2 protein; not shown: His tag
T2 sequence (looked up): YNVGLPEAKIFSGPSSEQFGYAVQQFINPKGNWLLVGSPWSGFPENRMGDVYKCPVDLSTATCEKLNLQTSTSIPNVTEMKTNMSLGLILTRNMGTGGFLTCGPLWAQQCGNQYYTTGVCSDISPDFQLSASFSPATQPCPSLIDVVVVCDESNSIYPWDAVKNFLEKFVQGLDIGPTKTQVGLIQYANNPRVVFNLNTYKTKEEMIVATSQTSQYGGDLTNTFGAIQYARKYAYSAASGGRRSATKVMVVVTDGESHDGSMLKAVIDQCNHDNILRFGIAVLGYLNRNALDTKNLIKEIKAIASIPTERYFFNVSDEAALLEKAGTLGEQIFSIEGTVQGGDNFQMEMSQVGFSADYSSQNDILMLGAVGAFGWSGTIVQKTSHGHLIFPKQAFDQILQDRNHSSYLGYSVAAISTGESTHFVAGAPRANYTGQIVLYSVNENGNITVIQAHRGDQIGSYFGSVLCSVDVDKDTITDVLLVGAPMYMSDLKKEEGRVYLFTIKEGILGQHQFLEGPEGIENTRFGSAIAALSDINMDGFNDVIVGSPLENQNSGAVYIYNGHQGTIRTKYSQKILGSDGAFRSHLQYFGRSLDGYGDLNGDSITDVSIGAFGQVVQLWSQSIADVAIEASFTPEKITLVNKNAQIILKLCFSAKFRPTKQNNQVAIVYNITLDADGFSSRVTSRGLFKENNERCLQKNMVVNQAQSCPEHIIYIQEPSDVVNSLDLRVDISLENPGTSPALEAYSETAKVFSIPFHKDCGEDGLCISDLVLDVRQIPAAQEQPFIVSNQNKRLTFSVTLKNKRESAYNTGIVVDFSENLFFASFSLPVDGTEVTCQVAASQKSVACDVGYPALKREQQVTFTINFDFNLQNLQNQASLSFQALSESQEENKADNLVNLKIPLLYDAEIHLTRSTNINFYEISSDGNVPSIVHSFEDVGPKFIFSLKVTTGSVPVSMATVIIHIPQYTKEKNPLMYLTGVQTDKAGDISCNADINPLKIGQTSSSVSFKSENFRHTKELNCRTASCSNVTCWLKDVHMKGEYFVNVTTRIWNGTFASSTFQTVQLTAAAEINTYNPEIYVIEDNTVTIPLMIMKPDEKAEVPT

B1: FS002-A153-H5L5-vcMMAE (antibody, human IgG1, kappa, V domains shown)
VH: QVQLVQSGAEVKKPGASVKVSCKASGYTFTDYEMHWVRQAPGQGLEWMGTIDPETGGTTYAQKFQGRVTMTADTSISTAYMELSRLRSDDTAVYYCARSGYYVSSYESYAMDYWGQGTTVTVSS
VL: EIVMTQSPPTLSLSPGERVTMSCRSSQSLLNSGNQKNYLTWYQQKPGQAPRLLIYGASTRESGVPARFSGSGSGTDFTLTISSLQPEDFAVYYCQNDYSYPFTFGGGTKLEIKR
modifications: vc-MMAE, attachment residues not stated; vc-MMAE (mc-vc-PAB-MMAE) conjugated after TCEP reduction, DAR 4.0 per antibody; attachment residues not stated
B2: FS002-A153-H5L1-vcMMAE (antibody, human IgG1, kappa, V domains shown)
VH: B1 VH
VL: DIVMTQSPDSLAVSLGERVTMSCKSSQSLLNSGNQKNYLTWYQQKPGQPPKLLIYGASTRESGVPDRFTGSGSGTDFTLTISSLQAEDVAVYYCQNDYSYPFTFGGGTKLEIKR
modifications: vc-MMAE, attachment residues not stated; vc-MMAE (mc-vc-PAB-MMAE) conjugated after TCEP reduction, DAR 3.7 per antibody; attachment residues not stated
B3: FS002-A153-H5L2-vcMMAE (antibody, human IgG1, kappa, V domains shown)
VH: B1 VH
VL: B2 VL with S22N, T69S
modifications: vc-MMAE, attachment residues not stated; vc-MMAE (mc-vc-PAB-MMAE) conjugated after TCEP reduction, DAR 3.5 per antibody; attachment residues not stated
B4: FS002-A103-H4L3-vcMMAE (antibody, human IgG1, kappa, V domains shown)
VH: B1 VH with T50V, A61N, M70L, A97S
VL: EIVMTQSPPTMSMSPGERVTLSCKASENVGTYVSWYQQKPGQAPRLLIYGASTRESGVPARFSGSGSGTDFTLTISSLQPEDFAVYYCQNDYSYPFTFGGGTKLEIKR
modifications: vc-MMAE, attachment residues not stated; vc-MMAE (mc-vc-PAB-MMAE) conjugated after TCEP reduction, DAR 3.5 per antibody; attachment residues not stated
B5: FS002-A226-H5L4-vcMMAE (antibody, human IgG1, kappa, V domains shown)
VH: B1 VH with M34I, T50A, T59N, A97S, S105N
VL: DIQLTQSPSSLSASVGDRVTITCRASQDIKSYLSWYQQKPGKAPKLLIYDTSNLASGVPSRFSGSGSGTDFTLTISSLQPEDFATYYCQQWSSYPFTFGGGTKLEIKR
modifications: vc-MMAE, attachment residues not stated; vc-MMAE (mc-vc-PAB-MMAE) conjugated after TCEP reduction, DAR 3.8 per antibody; attachment residues not stated
B6: FS002-A103-H4L2-vcMMAE (antibody, human IgG1, kappa, V domains shown)
VH: B1 VH with T50V, A61N, M70L, A97S
VL: B4 VL with P9K, A60D
modifications: vc-MMAE, attachment residues not stated; vc-MMAE (mc-vc-PAB-MMAE) conjugated after TCEP reduction, DAR 3.5 per antibody; attachment residues not stated
B7: FS002-A153-H4L2-vcMMAE (antibody, human IgG1, kappa, V domains shown)
VH: B1 VH with M70L, A97S
VL: B2 VL with S22N, T69S
modifications: vc-MMAE, attachment residues not stated; vc-MMAE (mc-vc-PAB-MMAE) conjugated after TCEP reduction, DAR 3.8 per antibody; attachment residues not stated
B8: FS002-A153-H3L3-vcMMAE (antibody, human IgG1, kappa, V domains shown)
VH: B1 VH with V20L, M48I, A61N, M70L, A97S
VL: B2 VL with V19A, M21I, S22N, T69S
modifications: vc-MMAE, attachment residues not stated; vc-MMAE (mc-vc-PAB-MMAE) conjugated after TCEP reduction, DAR 3.8 per antibody; attachment residues not stated
B9: FS002-A103-H4L4-vcMMAE (antibody, human IgG1, kappa, V domains shown)
VH: B1 VH with T50V, A61N, M70L, A97S
VL: B4 VL with M11L, M13L, K24R, V58I
modifications: vc-MMAE, attachment residues not stated; vc-MMAE (mc-vc-PAB-MMAE) conjugated after TCEP reduction, DAR 3.7 per antibody; attachment residues not stated
B10: FS002-A208-H4L4-vcMMAE (antibody, human IgG1, kappa, V domains shown)
VH: B1 VH with M34I, M48I, T50A, T59N, A61N, M70L, A97S, S105N
VL: DIQMTQSPSSLSASVGDRVTITCRASQNVGTNVAWYQQKPEKAPKSLIYSASYRFSGVPSRFSGSGSGTDFTLTISSLQPEDFATYYCQQYNIYPLSFGGGTKLELKR
modifications: vc-MMAE, attachment residues not stated; vc-MMAE (mc-vc-PAB-MMAE) conjugated after TCEP reduction, DAR 4.1 per antibody; attachment residues not stated
B11: FS002-A208-H5L4-vcMMAE (antibody, human IgG1, kappa, V domains shown)
VH: B1 VH with M34I, T50A, T59N, A97S, S105N
VL: B10 VL
modifications: vc-MMAE, attachment residues not stated; vc-MMAE (mc-vc-PAB-MMAE) conjugated after TCEP reduction, DAR 4.0 per antibody; attachment residues not stated
B12: Humanized antibody FS002-A103-H4L4 (antibody, human IgG1, kappa, V domains shown)
VH: B1 VH with T50V, A61N, M70L, A97S
VL: B4 VL with M11L, M13L, K24R, V58I
notes: Humanized IgG1 kappa
B13: FS002-A226-H3L4-vcMMAE (antibody, human IgG1, kappa, V domains shown)
VH: QLQLVQSGAEVKKPGASVKVSCKASGYTFTDYEIHWVRQAPGQGLEWIGAIDPETGGTNYNQKFNDRVTLTADTSISTAYMELSRLRSDDTAVYYCSRSGYYVSNYESYAMDYWGQGTTVTVSS
VL: B5 VL
modifications: vc-MMAE, attachment residues not stated; vc-MMAE (mc-vc-PAB-MMAE) conjugated after TCEP reduction, DAR 3.8 per antibody; attachment residues not stated
B14: Vatelizumab-vc-MMAE: Antibody-drug conjugate of the positive control antibody Vatelizumab with vc-MMAE linker-payload (conjugate, chains of the INN, looked up)
VH: QVQLQESGPGLVKPSETLSLTCTVSGFSLTNYGIHWIRQPPGKGLEWLGVIWARGFTNYNSALMSRLTISKDNSKNQVSLKLSSVTAADTAVYYCARANDGVYYAMDYWGQGTLVTVSS
VL: DFVMTQSPAFLSVTPGEKVTITCSAQSSVNYIHWYQQKPDQAPKKLIYDTSKLASGVPSRFSGSGSGTDYTFTISSLEAEDAATYYCQQWTTNPLTFGQGTKVEIK
modifications: vc-MMAE linker-payload

Tests used:
[1] = target: ITGA2 protein on the surface of human tumor cells (human) (UniProt P17301); test: cell-based or functional assay
[2] = target: T1, ITGA2 protein on the surface of human …; test: cell-based or functional assay
[3] = target: T1, ITGA2 protein on the surface of human …; test: flow cytometry on HuCCT1 cells
ITGA2-His = target: T2, ITGA2-His; test: ELISA, plate coated with 2 ug/mL ITGA2-His, anti-human IgG-Fc-HRP detection
[4] = tested on: Human epidermal cancer cells A431; test: ADC cancer cell killing assay (Cell-Titer-Glo 2.0); assay type: cell-based; conditions: 5 days at 37°C, 3-fold gradient, 11 points
Description: Human epidermal cancer cells A431 available from Procell Life Science&Technology Co.,Ltd. (Wuhan) were seeded into a 96-well plate at 2500 cells/well. It was then incubated in a 5% CO2 incubator overnight at 37°C. Half of the medium was removed from the cell plate on the next day. A 2x hIgG1-vcMMAE (negative control ADC, provided by ChemPartner), a control antibody and the ADC prepared as the above were prepared with a complete culture medium, and then diluted at a 3-fold gradient with 11 specific concentration points in total. Serial dilutions of the above molecules were added to the appropriate wells, and it was then incubated in a 5% CO2 incubator for 5 days at 37°C. After the incubation, 100 uL of Cell-Titer-Glo 2.0 reagent was added to the 96-well plate. It was then well mixed on a plate shaker for 2 minutes, and finally equilibrated at room temperature for 10 minutes. Readings were taken using a microplate reader. Finally, IC50 was used to compare the biological activity of the ADC against each cell line.

| Molecule | A431 cell killing IC50 [2] | further results |
| --- | --- | --- |
| Vatelizumab-vc-MMAE (antibody) |  | A431 cell killing IC50 [1]: 0.054 nM |
| B1 | 0.073 nM |  |
| B2 | 0.082 nM |  |
| B3 | 0.028 nM |  |
| B4 | 0.07 nM |  |
| B5 | 0.049 nM |  |
| B6 | 0.061 nM |  |
| B7 | 0.057 nM |  |
| B8 | 0.088 nM |  |
| B9 | 0.052 nM |  |
| B10 | 0.051 nM |  |
| B11 | 0.083 nM |  |
| B12 |  | EC50 [3]: 0.3 nM; EC50 (ITGA2-His): 0.01 nM |
| B13 | 0.063 nM |  |
| B14 |  | IC50 [4]: 0.054 nM; IC50 ([4]; listed as Vatelizumab-ve-MMAE): < 0.1 nM |
